The values that follow come from patent US20160237160A1, “ANTI-TWEAKR ANTIBODIES AND USES THEREOF” (BAYER PHARMA AKTIENGESELLSCHAFT, priority 2013, published 2016).

In the assay the target is TWEAKR (TNFRSF12A, FN14), human, on tumor cell lines (human) (UniProt Q9NP84). As to the kind of experiment: cell-based or functional assay.

“recombinant human TWEAK (R&D, #1090-TW-025/CF) (ligand)” registered a % Inhibition of proliferation, 786-O cells, 96h, 100 ng/ml of 12%; a % Inhibition of proliferation, A253 cells, 72h, 300 ng/ml greater than 100%; a % Inhibition of proliferation, HT-29 cells, 24h, 300 ng/ml of 98%; a % Inhibition of proliferation, LOVO cells, 72h, 100 ng/ml of 53%. This substance showed a % Inhibition of proliferation, NCI-H1975 cells, 72h, 100 ng/ml of 56%; a % Inhibition of proliferation, SW480 cells, 72h, 100 ng/ml of 0%; a Fold induction of Caspase 3/7, 786-O cells, 300 ng/ml of 1.45 fold; a Fold induction of Caspase 3/7, A253 cells, 300 ng/ml of 1.53 fold. The same substance registered a Fold induction of Caspase 3/7, HT-29 cells, 300 ng/ml of 2.31 fold; a Fold induction of Caspase 3/7, NCI-H322 cells, 100 ng/ml of 1.39 fold; a Fold induction of Caspase 3/7, WiDr cells, 300 ng/ml of 1.22 fold.
